The text below walks through data of paper PMC2946090 (Nature, 2010).

The data set concerns the molecule itself. Put plainly: crystal structure.

B1: CusA efflux pump (full-length CusA membrane protein with a 6xHis tag at the N-terminus) (natural protein, E. coli, UniProt P38054 1-1047, looked up)
chain: MIEWIIRRSVANRFLVLMGALFLSIWGTWTIINTPVDALPDLSDVQVIIKTSYPGQAPQIVENQVTYPLTTTMLSVPGAKTVRGFSQFGDSYVYVIFEDGTDPYWARSRVLEYLNQVQGKLPAGVSAELGPDATGVGWIYEYALVDRSGKHDLADLRSLQDWFLKYELKTIPDVAEVASVGGVVKEYQVVIDPQRLAQYGISLAEVKSALDASNQEAGGSSIELAEAEYMVRASGYLQTLDDFNHIVLKASENGVPVYLRDVAKVQIGPEMRRGIAELNGEGEVAGGVVILRSGKNAREVIAAVKDKLETLKSSLPEGVEIVTTYDRSQLIDRAIDNLSGKLLEEFIVVAVVCALFLWHVRSALVAIISLPLGLCIAFIVMHFQGLNANIMSLGGIAIAVGAMVDAAIVMIENAHKRLEEWQHQHPDATLDNKTRWQVITDASVEVGPALFISLLIITLSFIPIFTLEGQEGRLFGPLAFTKTYAMAGAALLAIVVIPILMGYWIRGKIPPESSNPLNRFLIRVYHPLLLKVLHWPKTTLLVAALSVLTVLWPLNKVGGEFLPQINEGDLLYMPSTLPGISAAEAASMLQKTDKLIMSVPEVARVFGKTGKAETATDSAPLEMVETTIQLKPQEQWRPGMTMDKIIEELDNTVRLPGLANLWVPPIRNRIDMLSTGIKSPIGIKVSGTVLADIDAMAEQIEEVARTVPGVASALAERLEGGRYINVEINREKAARYGMTVADVQLFVTSAVGGAMVGETVEGIARYPINLRYPQSWRDSPQALRQLPILTPMKQQITLADVADIKVSTGPSMLKTENARPTSWIYIDARDRDMVSVVHDLQKAIAEKVQLKPGTSVAFSGQFELLERANHKLKLMVPMTLMIIFVLLYLAFRRVGEALLIISSVPFALVGGIWLLWWMGFHLSVATGTGFIALAGVAAEFGVVMLMYLRHAIEAVPSLNNPQTFSEQKLDEALYHGAVLRVRPKAMTVAVIIAGLLPILWGTGAGSEVMSRIAAPMIGGMITAPLLSLFIIPAAYKLMWLHRHRVRK
For B1, the “stoichiometry N” value was determined as 3.

What is called stoichiometry N is the number of molecules, sites or subunits per partner or assembly.
